{"source": "patent US20210107958A1", "about": "“GLYPICAN EPITOPES AND USES THEREOF” (MINOMIC INTERNATIONAL LTD., priority 2015, published 2021)", "molecules": {"B1": {"name": "MIL38-AM4: Murine anti human glypican 1 monoclonal antibody produced by hybridoma cells deposited at Cellbank Australia under accession number CBA20140026 (antibody)", "heavy": "QIQLVQSGPELKKPGETVKISCKASGYAFTDYSMNWVKQAPGKGLRWMGWINTETGEPTYTDDFKGRFAFSLETSASTAFLQINNLRNEDTATYFCARHYDYGGFPYWGQGTLVTVSAAKTTPPSVYPLAPGSAAQTNSMVTLGCLVKGYFPEPVTVTWNSGSLSSGVHTFPAVLQSDLYTLSSSVTVPSSTWPSETVTCNVAHPASSTKVDKKIVPRDCGCKPCICTVPEVSSVFIFPPKPKDVLTITLTPKVTCVVVDISKDDPEVQFSWFVDDVEVHTAQTQPREEQFNSTFRSVSELPIMHQDWLNGKEFKCRVNSAAFPAPIEKTISKTKGRPKAPQVYTIPPPKEQMAKDKVSLTCMITDFFPEDITVEWQWNGQPAENYKNTQPIMDTDGSYFVYSKLNVQKSNWEAGNTFTCSVLHEGLHNHHTEKSLSHSPGK", "light": "DIQMTQSPASLSASVGETVTITCRASGNVHNYLAWYQQKQGKSPQLLVYTAKTLADGVPSRFSGSGSGTQYSLKINSLQPEDFGTYYCQHFWSNPWTFGGGTKLEIKRADAAPTVSIFPPSSEQLTSGGASVVCFLNNFYPKDINVKWKIDGSERQNGVLNSWTDQDSKDSTYSMSSTLTLTKDEYERHNSYTCEATHKTSTSPIVKSFNRNEC"}}, "format_in_all_cases": "binding", "key": {"[1]": {"target": "T1, MIL38 antigen (Homo sapiens, UniProt P35052)", "T1 construct": "tissue Novus Bio; host or cells: membrane protein extracts of normal prostate and prostate cancer", "T1 sequence (P35052 24-558)": "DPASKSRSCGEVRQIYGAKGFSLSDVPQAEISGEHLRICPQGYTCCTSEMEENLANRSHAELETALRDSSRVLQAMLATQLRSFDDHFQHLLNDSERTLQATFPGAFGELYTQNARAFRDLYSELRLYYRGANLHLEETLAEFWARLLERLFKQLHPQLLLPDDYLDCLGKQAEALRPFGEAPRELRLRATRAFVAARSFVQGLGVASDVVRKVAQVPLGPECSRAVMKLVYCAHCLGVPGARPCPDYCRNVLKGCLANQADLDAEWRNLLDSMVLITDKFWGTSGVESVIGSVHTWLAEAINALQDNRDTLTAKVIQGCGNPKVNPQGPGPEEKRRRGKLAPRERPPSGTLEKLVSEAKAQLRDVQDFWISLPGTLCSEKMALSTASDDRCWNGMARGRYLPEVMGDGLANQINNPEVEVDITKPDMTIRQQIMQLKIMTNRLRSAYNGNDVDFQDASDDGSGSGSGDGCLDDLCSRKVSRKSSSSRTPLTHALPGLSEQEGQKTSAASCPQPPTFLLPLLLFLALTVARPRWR", "experiment": "Western blot of membrane protein extracts from normal prostate and prostate cancer", "settings": "equivalent amounts of protein", "excerpt": "To determine if MIL38 antigen could be detected in membrane protein extracts from normal prostate and prostate cancer, one sample of each was obtained from Novus Bio. Equivalent amounts of protein were western blotted using MIL38 antibody (FIG. 16B)."}, "[2]": {"target": "T2, glypican-1 (Homo sapiens, UniProt P35052)", "T2 construct": "endogenous in cells; host or cells: DU-145 prostate cancer cells (membrane protein extract)", "T2 sequence (P35052 24-558)": "T1 sequence (P35052 24-558)", "experiment": "Immunoprecipitation and western blot of DU-145 or C3 (MIL38 negative) MPEK extracts", "excerpt": "MIL38 or rabbit anti-GPC-1 antibodies were used to immunoprecipitate their respective antigens from DU-145 or C3 (MIL38 negative) MPEK extracts. The immunoprecipitates (IPs) were western blotted with either MIL38 or anti-GPC-1 antibody (FIG. 15).\nMIL38 and rabbit anti-GPC-1 antibodies were each used to immunoprecipitate their antigens from DU-145 prostate cancer or C3 (MIL38 negative) cell membrane protein extracts. Shown are the western blots of the immunoprecipitations detected with either MIL38 or anti-GPC-1 antibody. FIG. 15A depicts GPC1 detection of MIL38 immunoprecipitates (left) and MIL38 detection of GPC1 immunoprecipitates (right). FIG. 15B depicts MIL38 detection of MIL38 immunoprecipitates as a control. Lanes are: Magic Mark-commercial protein marker as control; DU145 MPEK-prostate cancer membrane protein extract (not immunoprecipitated); DU145 FT-prostate cancer flow through from immune precipitation; DU145 IP-immunoprecipitate using antibody; C3 MPEK-(MIL38 negative) control membrane protein extract (not immunoprecipitated); C3 FT-flow through from immune precipitation; C3 IP elution-(MIL38 negative) immunoprecipitate using antibody. MIL38 can detect the immunoprecipitate from rGPC1 antibody and vice versa. MIL38 can also bind to all controls including DU145 MPEK and to IP conducted by MIL38."}, "[3]": {"target": "T3, glypican-1 core protein (Homo sapiens, UniProt P35052)", "T3 construct": "endogenous in cells; host or cells: DU-145 prostate cancer cells (membrane protein extract)", "T3 sequence (P35052 24-558)": "T1 sequence (P35052 24-558)", "experiment": "2D electrophoresis and western blotting of DU-145 MPEK extracts", "excerpt": "To confirm that MIL38 recognized glypican-1, prostate cancer DU-145 MPEK extracts were subjected to 2D electrophoresis and western blotting.\nMembrane protein extracts (MPEK) of DU-145 prostate cancer cells were separated on 2D gel (pI gradient-horizontal, and molecular mass vertical). Western blots using MIL38 antibody and commercial rGPC-1 rabbit polyclonal antibodies show overlapping reactivity marking a 60Kd protein (circled in FIG. 14). Lane D (FIG. 14) is a one dimension separation for DU-145 extracts as a control. Lane M (FIG. 14) is a one dimension separation lane for molecular size markers as controls."}, "[4]": {"system": "human glypican-1 (GPC-1)", "experiment": "PEPSCAN-based ELISA on linear and CLIPS peptide arrays (sets 1-5) spanning GPC-1", "excerpt": "The following human glypican-1 (GPC-1) sequence was used as a basis to generate a library of structured peptides.\nTo reconstruct discontinuous epitopes of the target molecule a library of structured peptides was synthesized. This was done using Chemically Linked Peptides on Scaffolds (CLIPS) technology. CLIPS technology allowed the generation of structured peptides in single loops, double-loops, triple loops, sheet-like folds, helix-like folds and combinations thereof. CLIPS templates were coupled to cysteine residues. The side-chains of multiple cysteines in the peptides were coupled to one or two CLIPS templates. For example, a 0.5 mM solution of the T2 CLIPS template 1,3-bis (bromomethyl) benzene was dissolved in ammonium bicarbonate (20 mM, pH 7.9)/acetonitrile (1:1(v/v)). This solution was added onto the peptide arrays. The CLIPS template bound to side-chains of two cysteines as present in the solid-phase bound peptides of the peptide-arrays (455 wells plate with 3 μl wells). The peptide arrays were gently shaken in the solution for 30 to 60 minutes while completely covered in solution. Finally, the peptide arrays were washed extensively with excess of H2O and sonicated in disrupt-buffer containing 1 percent SDS/0.1 percent beta-mercaptoethanol in PBS (pH 7.2) at 70° C. for 30 minutes, followed by sonication in H2O for another 45 minutes. The T3 CLIPS carrying peptides were made in a similar way but with three cysteines.\nThe binding of antibody to each of the synthesized peptides was tested in a PEPSCAN-based ELISA. The peptide arrays were incubated with primary antibody solution (overnight at 4° C.). […] After one hour, the color development was measured. The color development was quantified with a charge coupled device (CCD)-camera and an image processing system.\nThe values obtained from the CCD camera ranged from 0 to 3000 mAU, similar to a standard 96-well plate ELISA-reader. The results were quantified and stored in the Peplab database. […] The cards were manually inspected and any values caused by an air-bubble were scored as 0. […]"}, "[5]": {"target": "T4, glypican-1 (Homo sapiens, UniProt P35052)", "T4 construct": "from tissue; host or cells: human plasma (patients 042 and 046), with or without heparinase treatment", "T4 sequence (P35052 24-530 limits assumed)": "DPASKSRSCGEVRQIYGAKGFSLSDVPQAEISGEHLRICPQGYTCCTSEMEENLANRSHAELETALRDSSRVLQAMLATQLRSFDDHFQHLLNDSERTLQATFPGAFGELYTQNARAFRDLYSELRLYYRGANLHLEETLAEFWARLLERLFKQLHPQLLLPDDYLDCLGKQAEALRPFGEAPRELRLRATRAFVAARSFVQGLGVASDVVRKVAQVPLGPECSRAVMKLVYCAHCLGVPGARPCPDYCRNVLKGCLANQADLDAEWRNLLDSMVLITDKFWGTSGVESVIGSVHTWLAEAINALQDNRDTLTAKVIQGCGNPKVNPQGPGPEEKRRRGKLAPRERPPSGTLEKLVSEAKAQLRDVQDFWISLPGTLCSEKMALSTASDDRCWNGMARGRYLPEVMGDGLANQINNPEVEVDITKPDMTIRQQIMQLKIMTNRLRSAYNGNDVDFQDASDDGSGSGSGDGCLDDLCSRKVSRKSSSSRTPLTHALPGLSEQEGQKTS", "experiment": "MIL38 immunoprecipitation and western blot of plasma samples (normal and prostate cancer patient)", "excerpt": "Plasma samples from one normal patient (042) and one prostate cancer patient (046) were immunoprecipitated with MIL38 antibody and the IP sample western blotted with MIL38 and anti-GPC-1 antibodies (FIG. 16A)."}}, "data": [{"molecule": "B1", "values": [{"measurement": "expression of MIL38 antigen in prostate cancer extract versus normal prostate sample", "setting": "[1]", "result": "much higher"}, {"measurement": "depletion of MIL38 and anti-GPC-1 antigens by immunoprecipitation", "setting": "[2]; DU-145 MPEK flow through", "result": "almost complete depletion"}, {"measurement": "reactive band detected in the other antibody's immunoprecipitate", "setting": "[2]; DU-145 MPEK, IP with one antibody, blot with the other", "result": 60, "unit": "kDa"}, {"measurement": "molecular weight of protein detected", "setting": "[3]", "result": 60, "unit": "kDa"}, {"measurement": "ELISA response versus antibody concentration", "setting": "[4]; 1 μg/ml and 10 μg/ml, normal stringency", "result": "concentration dependent response"}, {"measurement": "saturation of ELISA signal", "setting": "[4]; 10 μg/ml", "result": "saturation was not observed"}, {"measurement": "stretches / common cores of GPC-1 recognized on the peptide arrays", "setting": "[4]; peptide sets 1-5 (linear, loop, helical, sheet)", "result": "135TQNARAFRD143 (SEQ ID NO: 7) and 348[…]358 (SEQ ID NO: 2)"}, {"measurement": "specific bands detected in plasma immunoprecipitates", "setting": "[5]; MIL38 IP of both plasma samples", "result": "approx. 70 kDa"}, {"measurement": "signal in prostate cancer patient plasma compared to normal patient plasma", "setting": "[5]; patient 046 vs 042", "result": "markedly higher"}]}]}
